Measurements published in PMC10912200 (Nature Communications, 2024).
Positions count from the first letter of the chain named.

T1: TcsH^2210-2618, His-tagged (Paeniclostridium sordellii, UniProt M9ZTT7 2210-2618)
T1 construct: not shown: His, C-terminal, kept
T1 sequence: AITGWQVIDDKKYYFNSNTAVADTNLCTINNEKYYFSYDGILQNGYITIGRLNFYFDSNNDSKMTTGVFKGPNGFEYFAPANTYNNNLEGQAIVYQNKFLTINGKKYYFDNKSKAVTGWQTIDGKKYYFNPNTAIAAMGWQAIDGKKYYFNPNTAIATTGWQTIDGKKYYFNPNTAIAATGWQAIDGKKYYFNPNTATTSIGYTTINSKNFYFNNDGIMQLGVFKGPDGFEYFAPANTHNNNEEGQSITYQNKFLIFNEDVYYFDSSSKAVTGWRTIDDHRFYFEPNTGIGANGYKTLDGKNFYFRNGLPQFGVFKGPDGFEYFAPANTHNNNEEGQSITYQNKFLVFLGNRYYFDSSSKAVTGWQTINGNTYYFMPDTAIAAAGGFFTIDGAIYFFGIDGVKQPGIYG

T2: MBP-fused TcsH^2236-2618 (Paeniclostridium sordellii, UniProt M9ZTT7 2236-2618)
T2 construct: source: E. coli BL21(DE3), purified (Amylose resin, SEC)
T2 sequence: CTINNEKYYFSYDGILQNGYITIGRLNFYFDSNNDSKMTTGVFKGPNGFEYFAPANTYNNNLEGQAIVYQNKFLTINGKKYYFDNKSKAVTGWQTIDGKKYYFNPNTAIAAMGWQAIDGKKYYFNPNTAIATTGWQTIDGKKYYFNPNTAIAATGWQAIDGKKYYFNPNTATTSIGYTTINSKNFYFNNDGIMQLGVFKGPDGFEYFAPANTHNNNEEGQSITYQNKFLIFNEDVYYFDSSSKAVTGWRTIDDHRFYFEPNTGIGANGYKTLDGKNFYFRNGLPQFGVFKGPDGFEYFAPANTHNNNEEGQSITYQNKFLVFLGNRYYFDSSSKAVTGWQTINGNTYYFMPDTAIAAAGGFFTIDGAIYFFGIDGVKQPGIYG

B1: Fc-His-TMPRSS2^ECD [change] (Fc fusion)
chain: WKFMGSKCSNSGIECDSSGTCINPSNWCDGVSHCPGGEDENRCVRLYGPNFILQVYSSQRKSWHPVCQDDWNENYGRAACRDMGYKNNFYSSQGIVDDSGSTSFMKLNTSAGNVDIYKKLYHSDACSSKAVVSLRCIACGVNLNSSRQSQIVGGESALPGAWPWQVSLHVQNVHVCGGSIITPEWIVTAAHCVEKPLNNPWHWTAFAGILRQSFMFYGAGYQVEKVISHPNYDSKTKNNDIALMKLQKPLTFNDLVKPVCLPNPGMMLQPEQLCWISGWGATEEKGKTSEVLNAAKVLLIETQRCNSRYVYANLITPAMICAGFLQGNVDSCQGDSGGPLVTSKNNIWWLIGDTSWGSGCAKAYRPGVYGNVMVFTDWIYRQMRADG
notes: source: Expi293F, transfected, purified from the supernatant (TALON resin, SEC)
B2: Fc-His-TMPRSS2^ECD [change] (Fc fusion)
chain: B1 chain with L197R, A312D
notes: as for B1
B3: Fc-His-TMPRSS2^ECD [change] (Fc fusion)
chain: B1 chain with A312D, L314R
notes: as for B1
B4: Fc-His-TMPRSS2^ECD [change] (Fc fusion)
chain: B1 chain with H202A, A312D
notes: as for B1
B5: Fc-His-TMPRSS2^ECD (Fc fusion)
chain: B1 chain with A312D
B6: Fc-His-TMPRSS2^ECD [change] (Fc fusion)
chain: B1 chain with Q171A, A312D
notes: as for B1
B7: Fc-His-TMPRSS2^ECD [change] (Fc fusion)
chain: B1 chain with V170R, A312D
notes: as for B1

Legend:
Details in all cases: both partners purified
[1] = molecular target: T1, TcsH^2210-2618, His-tagged; test: pull-down
MBP-fused TcsH^2236-2618 = molecular target: T2, MBP-fused TcsH^2236-2618; test: BLI
[2] = molecular target: T1, TcsH^2210-2618, His-tagged; test: BLI

Binder	binding result [1]	Kd (MBP-fused TcsH^2236-2618)	Kd [2]
B1	binds		
B2	binds		
B3	binds		
B4	binds		
B5		0.75 nM	0.37 nM
B6	binds		
B7	binds		
